Blank lines part the entries; values can stand above or below the molecule they belong to.
B1: human TRAF1 TRAF domain (residues 220-416), containing the TRAF-N coiled-coil domain and the TRAF-C domain (domain or fragment, UniProt Q13077 220-416, looked up)
chain: HQSQLDRERILSLEQRVVELQQTLAQKDQALGKLEQSLRLMEEASFDGTFLWKITNVTRRCHESACGRTVSLFSPAFYTAKYGYKLCLRLYLNGDGTGKRTHLSLFIVIMRGEYDALLPWPFRNKVTFMLLDQNNREHAIDAFRPDLSSASFQRPQSETNVASGCPLFFPLSKLQSPKHAYVKDDTMFLKCIVETST
notes: TNF-receptor associated factor 1 (TRAF1), human, TRAF domain, amino acids 220-416, cloned into pET24a; Trimer in the crystal and in solution (SEC, MALS); also called wildtype TRAF1; not shown: His-tag, C-terminal, kept

Legend:
[1] = molecular target: TANK peptide PEP (Homo sapiens) (UniProt Q92844); settings: cited from earlier work
[2] = molecular target: the molecule itself; test: SEC; Superdex 200 10/30 gel filtration in 20 mM sodium citrate pH 5.0, 1 M NaCl
[3] = molecular target: B1; test: ITC; NanoITC; 1 mM TANK peptide injected into ~20 uM wildtype or mutant TRAF1 in the cell; PBS; 15 °C; 25 injections; single site model; settings: both partners purified

Sequence of TANK peptide PEP (Homo sapiens) (Q92844 178-198): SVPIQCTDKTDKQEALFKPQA

Molecule: TRAF3 (from UniProt Q13114)
Kd [1]: 23.9 µM

Molecule: B1
stoichiometry N [2]: 3

Kd [3]: 13.6 µM
B2: TANK peptide (SVPIQCTDKT) (peptide)
peptide: SVPIQCTDKT
notes: also called I-TRAF; source: synthetic peptide (Peptron, Dae-jeon, South Korea)

From article PMC4858697, “Crystal structure of TRAF1 TRAF domain and its implications in the TRAF1-mediated intracellular signaling pathway” (Scientific Reports, 2016)
